Data: patent publication US20240075157A1

Tests used:
[1] = molecular target: cynomolgus FcγRI (cyno FcγR1) (cynomolgus); assay: BLI, His-cyno FcR1
hFcγR2B (human) [2] = molecular target: hFcγR2B (human) (UniProt P31994); assay: BLI, Hu Fc2B
[3] = molecular target: human FcγR1 (hFcγR1) (human) (UniProt P12314); assay: BLI, Hu Fc1
hFcγR2A 167H (human) [4] = molecular target: hFcγR2A 167H (human) (UniProt P12318); assay: BLI, Hu Fc2A 167H
hFcγR2A 167R (human) [5] = molecular target: hFcγR2A 167R (human) (UniProt P12318); assay: BLI, Hu Fc2A 167R
hFcγR3A 176V (human) = hFcγR3A 176V (human) (UniProt P08637); assay: BLI, Hu Fc3A 176V
Hu Fc3A 176F = assay: BLI, Hu Fc3A 176F
[6] = molecular target: human FcγR1 (hFcγR1) (human) (UniProt P12314); assay: BLI, His-hFcR1
hFcγR2A 167H (human) [7] = molecular target: hFcγR2A 167H (human) (UniProt P12318); assay: BLI, Bio hFcR2A 167H
hFcγR2B (human) [8] = molecular target: hFcγR2B (human) (UniProt P31994); assay: BLI, Bio-hFcR2B
hFcγR2A 167R (human) [9] = molecular target: hFcγR2A 167R (human) (UniProt P12318); assay: BLI, Bio-hFcR2A 167R
[10] = molecular target: human FcγR1 (hFcγR1) (human) (UniProt P12314); assay: BLI, Bio-hFcR1
hFcγR2A 167R (human) [11] = molecular target: hFcγR2A 167R (human) (UniProt P12318); assay: BLI, FcR2A 167R, 600nM IgG
hFcγR2A 167H (human) [12] = molecular target: hFcγR2A 167H (human) (UniProt P12318); assay: BLI, FcR2A 167H, 450nM IgG
[13] = molecular target: human FcγR1 (hFcγR1) (human) (UniProt P12314); assay: BLI, FcR1, 10nM IgG
hFcγR3B (human) [14] = molecular target: hFcγR3B (human) (UniProt O75015); assay: BLI, FcR3B, 450nM IgG
hFcγR3B (human) [15] = molecular target: hFcγR3B (human) (UniProt O75015); assay: BLI, FcR3B, 600nM IgG
[16] = molecular target: human FcγR1 (hFcγR1) (human) (UniProt P12314); assay: BLI, FcR1, 50nM IgG
hFcγR2A 167R (human) [17] = molecular target: hFcγR2A 167R (human) (UniProt P12318); assay: BLI, FcR2A 167R, 450nM IgG
hFcγR2B (human) [18] = molecular target: hFcγR2B (human) (UniProt P31994); assay: BLI, FcR2B, 450nM IgG
hFcγR2B (human) [19] = molecular target: hFcγR2B (human) (UniProt P31994); assay: BLI, FcR2B, 600nM IgG
hFcγR2A 167H (human) [20] = molecular target: hFcγR2A 167H (human) (UniProt P12318); assay: BLI, FcR2A 167H, 600nM IgG
[21] = molecular target: human FcγR1 (hFcγR1) (human) (UniProt P12314); assay: BLI, FcR1, 25nM IgG

Chain of Hu Fc3A 176F (chain, as listed by the source limits assumed): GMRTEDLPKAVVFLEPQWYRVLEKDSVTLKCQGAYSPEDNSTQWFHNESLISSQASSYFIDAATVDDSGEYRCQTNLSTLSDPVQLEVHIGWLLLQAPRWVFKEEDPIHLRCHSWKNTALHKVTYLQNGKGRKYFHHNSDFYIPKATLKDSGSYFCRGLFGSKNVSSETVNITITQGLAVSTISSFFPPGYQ
Chain of hFcγR2A 167R (human) (P12318 36-218 H167R): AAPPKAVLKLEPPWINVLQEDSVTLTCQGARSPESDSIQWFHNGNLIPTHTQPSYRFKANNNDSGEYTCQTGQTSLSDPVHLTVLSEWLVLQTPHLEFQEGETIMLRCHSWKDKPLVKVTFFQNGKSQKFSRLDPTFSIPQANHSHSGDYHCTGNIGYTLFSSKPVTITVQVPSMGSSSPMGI
Chain of hFcγR2B (human) (P31994 46-217): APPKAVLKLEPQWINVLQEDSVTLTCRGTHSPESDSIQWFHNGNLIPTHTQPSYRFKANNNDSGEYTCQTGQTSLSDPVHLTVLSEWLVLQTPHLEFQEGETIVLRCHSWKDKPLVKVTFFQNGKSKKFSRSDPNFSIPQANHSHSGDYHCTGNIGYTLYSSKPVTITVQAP
Chain of cynomolgus FcγRI (cyno FcγR1) (cynomolgus) (A0A2K5 entry or part of it limits assumed): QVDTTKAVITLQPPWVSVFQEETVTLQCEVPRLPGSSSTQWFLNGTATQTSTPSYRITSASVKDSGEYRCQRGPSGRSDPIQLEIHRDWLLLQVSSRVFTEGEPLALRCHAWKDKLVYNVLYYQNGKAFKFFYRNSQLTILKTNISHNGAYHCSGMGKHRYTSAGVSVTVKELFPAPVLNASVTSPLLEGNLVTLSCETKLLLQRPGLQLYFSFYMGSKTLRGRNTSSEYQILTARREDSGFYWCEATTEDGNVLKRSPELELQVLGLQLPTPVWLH
Chain of hFcγR2A 167H (human) (P12318 36-218): as the sequence (P12318 36-218 H167R) above, with R132H counted along it
Chain of human FcγR1 (hFcγR1) (human) (P12314 16-288 limits assumed): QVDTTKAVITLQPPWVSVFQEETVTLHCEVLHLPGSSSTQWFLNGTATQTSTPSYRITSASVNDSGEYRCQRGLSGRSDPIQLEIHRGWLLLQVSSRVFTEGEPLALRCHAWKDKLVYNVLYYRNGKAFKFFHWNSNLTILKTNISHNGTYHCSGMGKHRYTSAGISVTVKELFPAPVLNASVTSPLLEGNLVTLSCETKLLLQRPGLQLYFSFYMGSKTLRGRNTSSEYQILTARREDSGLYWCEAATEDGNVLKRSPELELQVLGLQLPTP
Chain of hFcγR3A 176V (human) (P08637 17-208 F176V limits assumed): as the sequence (chain, as listed by the source limits assumed) above, with F160V counted along it
Chain of hFcγR3B (human) (O75015 17-200 limits assumed): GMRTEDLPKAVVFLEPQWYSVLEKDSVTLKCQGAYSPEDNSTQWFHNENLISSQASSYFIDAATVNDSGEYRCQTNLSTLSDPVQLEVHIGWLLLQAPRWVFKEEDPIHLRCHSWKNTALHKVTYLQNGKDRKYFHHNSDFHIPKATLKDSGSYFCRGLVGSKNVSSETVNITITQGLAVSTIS

| normalized binding response (hFcγR2B (human) [2]) | normalized binding response [3] | normalized binding response (hFcγR2A 167H (human) [4]) | normalized binding response (hFcγR2A 167R (human) [5]) | normalized binding response (Hu Fc3A 176F) | Substance | other results |
| --- | --- | --- | --- | --- | --- | --- |
|  |  |  |  |  | Ab2 D265C N297Q (antibody) | Normalized Response [1]: 7 % of WT |
|  |  |  |  |  | Ab2 D265C N297Q H435A (antibody) | Normalized Response [1]: 7 % of WT |
| 2 % of WT | 40 % of WT | 2 % of WT |  |  | Ab5 (anti-CD45 antibody) D265A variant |  |
| 2 % of WT |  |  |  |  | Ab5 (anti-CD45 antibody) D265C.N297A.H435A variant |  |
| 3 % of WT |  | 4 % of WT | 2 % of WT | 19 % of WT | Ab5 (anti-CD45 antibody) LALA variant | normalized binding response (hFcγR3A 176V (human)): 34 % of WT |
| 1 % of WT |  |  |  |  | Ab5 CH2 deleted (antibody) |  |
| 1 % of WT | 35 % of WT | 3 % of WT |  |  | Ab5 D265A.H435A (antibody) |  |
| 3 % of WT | 33 % of WT |  |  |  | Ab5 D265C.H435A (antibody) |  |
|  | 4 % of WT |  |  | 1 % of WT | Ab5 D265C.LALA.P329G.H435A (antibody) |  |
| 10 % of WT | 1 % of WT | 66 % of WT | 15 % of WT | 9 % of WT | Ab5 EPLVLAdelG (antibody) | normalized binding response (hFcγR3A 176V (human)): 16 % of WT |
|  |  |  | 2 % of WT |  | Ab5 LALA.P329G (antibody) |  |
| 8 % of WT |  |  | 1 % of WT |  | Ab5 LALA.P331G (antibody) |  |
|  |  |  |  |  | Isotype WT (antibody) | Normalized Response [6]: 85 % of WT; Normalized Response (hFcγR2A 167H (human) [7]): 90 % of WT; Normalized Response [1]: 82 % of WT; Normalized Response (hFcγR2B (human) [8]): 95 % of WT; Normalized Response (hFcγR2A 167R (human) [9]): 102 % of WT; Normalized Response [10]: 91 % of WT |
| 120 % of WT | 121 % of WT | 150 % of WT | 56 % of WT | 62 % of WT | YTH24.5 (anti-CD45 rIgG2b) (antibody) |  |
|  |  |  |  |  | naked (un-conjugated) antibody (i.e., the isotype control) of FIGS. 1D and 1E | % Binding vs Wild Type hIgG1 (hFcγR2A 167R (human) [11]): 100%; % Binding vs Wild Type hIgG1 (hFcγR2A 167H (human) [12]): 100%; % Binding vs Wild Type hIgG1 [13]: 100%; % Binding vs Wild Type hIgG1 (hFcγR3B (human) [14]): 100%; % Binding vs Wild Type hIgG1 (hFcγR3B (human) [15]): 100%; % Binding vs Wild Type hIgG1 [16]: 100%; % Binding vs Wild Type hIgG1 (hFcγR2A 167R (human) [17]): 100%; % Binding vs Wild Type hIgG1 (hFcγR2B (human) [18]): 100%; % Binding vs Wild Type hIgG1 (hFcγR2B (human) [19]): 100%; % Binding vs Wild Type hIgG1 (hFcγR2A 167H (human) [20]): 100%; % Binding vs Wild Type hIgG1 [21]: 100% |
| 8 % of WT |  | 3 % of WT | 74 % of WT | 1 % of WT | rIgG2a (rat IgG2a isotype control) (antibody) |  |
